Bounds are passed on as bounds.

To fix the notation:
B1: v29456-MT-GGFG-AM-Compound 139 DAR 8 (antibody, human IgG1, kappa)
heavy: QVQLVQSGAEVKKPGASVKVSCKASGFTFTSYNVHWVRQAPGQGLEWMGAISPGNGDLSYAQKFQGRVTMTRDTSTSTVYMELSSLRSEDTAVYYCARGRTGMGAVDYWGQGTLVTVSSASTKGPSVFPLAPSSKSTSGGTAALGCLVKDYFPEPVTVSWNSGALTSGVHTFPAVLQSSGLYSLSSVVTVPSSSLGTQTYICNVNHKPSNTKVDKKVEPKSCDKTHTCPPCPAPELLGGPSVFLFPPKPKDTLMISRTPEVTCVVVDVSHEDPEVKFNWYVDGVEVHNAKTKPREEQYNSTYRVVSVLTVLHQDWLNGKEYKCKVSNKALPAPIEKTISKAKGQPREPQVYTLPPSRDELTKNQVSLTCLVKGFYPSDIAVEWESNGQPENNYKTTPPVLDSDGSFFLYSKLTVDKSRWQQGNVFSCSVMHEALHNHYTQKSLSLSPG
light: DVQMTQSPSSLSASVGDRVTITCRASQDVYSYLNWYQQKPGKAVKLLIYYTSRLQSGVPSRFSGSGSGTDYTLTISSLQPEDFATYYCQQYNIFPWTFGQGTKLEIKRTVAAPSVFIFPPSDEQLKSGTASVVCLLNNFYPREAKVQWKVDNALQSGNSQESVTEQDSKDSTYSLSSTLTLSKADYEKHKVYACEVTHQGLSSPVTKSFNRGEC
modifications: MT-GGFG-AM-Compound 139 drug-linker on reduced cysteines (maleimide); DAR 8 for the whole antibody
B2: v29456-MT-GGFG-Compound 148 DAR 8 (antibody, human IgG1, kappa)
heavy: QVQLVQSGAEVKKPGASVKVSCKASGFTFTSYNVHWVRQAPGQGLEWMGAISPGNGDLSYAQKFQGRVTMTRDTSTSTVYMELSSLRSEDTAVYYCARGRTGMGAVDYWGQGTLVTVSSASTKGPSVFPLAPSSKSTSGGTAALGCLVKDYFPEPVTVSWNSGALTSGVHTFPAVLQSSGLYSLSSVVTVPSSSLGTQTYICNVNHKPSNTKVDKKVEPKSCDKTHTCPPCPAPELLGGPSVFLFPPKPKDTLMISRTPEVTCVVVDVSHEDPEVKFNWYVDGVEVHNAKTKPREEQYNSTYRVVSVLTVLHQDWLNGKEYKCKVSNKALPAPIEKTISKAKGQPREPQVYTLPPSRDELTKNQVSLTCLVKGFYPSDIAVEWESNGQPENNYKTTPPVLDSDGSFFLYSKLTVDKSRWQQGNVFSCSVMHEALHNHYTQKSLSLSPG
light: B1 light
modifications: MT-GGFG-Compound 148 drug-linker on reduced cysteines (maleimide); DAR 8 for the whole antibody
B3: v29456-MT-GGFG-Compound 140 DAR 8 (antibody, human IgG1, kappa)
heavy: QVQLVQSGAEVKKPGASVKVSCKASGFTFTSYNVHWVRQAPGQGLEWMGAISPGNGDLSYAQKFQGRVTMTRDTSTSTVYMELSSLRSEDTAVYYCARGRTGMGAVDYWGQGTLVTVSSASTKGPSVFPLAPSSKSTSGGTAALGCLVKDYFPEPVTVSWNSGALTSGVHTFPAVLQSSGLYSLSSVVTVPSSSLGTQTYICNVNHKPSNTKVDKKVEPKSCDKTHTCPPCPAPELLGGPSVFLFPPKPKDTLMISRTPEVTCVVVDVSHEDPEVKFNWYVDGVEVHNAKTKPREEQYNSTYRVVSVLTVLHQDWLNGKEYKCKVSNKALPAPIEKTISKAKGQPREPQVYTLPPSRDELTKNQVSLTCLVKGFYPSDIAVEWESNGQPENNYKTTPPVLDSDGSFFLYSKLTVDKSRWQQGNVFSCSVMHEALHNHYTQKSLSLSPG
light: B1 light
modifications: MT-GGFG-Compound 140 drug-linker on reduced cysteines (maleimide); DAR 8 for the whole antibody
B4: v29456-MT-GGFG-AM-Compound 129 DAR 8 (antibody, human IgG1, kappa)
heavy: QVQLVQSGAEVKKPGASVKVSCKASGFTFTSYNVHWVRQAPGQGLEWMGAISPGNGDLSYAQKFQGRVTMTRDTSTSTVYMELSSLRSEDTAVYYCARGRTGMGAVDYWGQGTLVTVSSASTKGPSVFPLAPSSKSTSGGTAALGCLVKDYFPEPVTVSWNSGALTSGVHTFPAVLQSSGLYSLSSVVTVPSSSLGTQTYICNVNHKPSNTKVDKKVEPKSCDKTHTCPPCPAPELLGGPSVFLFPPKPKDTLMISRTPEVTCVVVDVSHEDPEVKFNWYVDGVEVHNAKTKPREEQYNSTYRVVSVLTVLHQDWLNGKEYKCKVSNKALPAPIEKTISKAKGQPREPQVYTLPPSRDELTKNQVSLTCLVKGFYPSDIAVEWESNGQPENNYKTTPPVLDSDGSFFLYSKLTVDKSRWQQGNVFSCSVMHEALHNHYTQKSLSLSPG
light: B1 light
modifications: MT-GGFG-AM-Compound 129 drug-linker on reduced cysteines (maleimide); DAR 8 for the whole antibody
B5: v29456-MT-GGFG-AM-Compound 136 DAR 8 (antibody, human IgG1, kappa)
heavy: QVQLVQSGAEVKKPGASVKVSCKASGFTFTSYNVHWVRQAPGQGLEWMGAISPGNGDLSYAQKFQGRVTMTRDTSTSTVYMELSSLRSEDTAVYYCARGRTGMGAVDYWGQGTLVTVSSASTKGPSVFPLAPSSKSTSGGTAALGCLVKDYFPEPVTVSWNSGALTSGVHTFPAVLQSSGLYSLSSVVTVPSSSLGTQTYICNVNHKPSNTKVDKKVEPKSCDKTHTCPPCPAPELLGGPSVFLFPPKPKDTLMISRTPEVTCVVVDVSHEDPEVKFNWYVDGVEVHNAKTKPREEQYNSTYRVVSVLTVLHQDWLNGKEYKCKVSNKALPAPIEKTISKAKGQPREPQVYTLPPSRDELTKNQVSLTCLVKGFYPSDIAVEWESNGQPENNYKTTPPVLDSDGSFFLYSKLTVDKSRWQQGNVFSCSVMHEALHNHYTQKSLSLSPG
light: B1 light
modifications: MT-GGFG-AM-Compound 136 drug-linker on reduced cysteines (maleimide); DAR 8 for the whole antibody
B6: v29456-MC-GGFG-AM-DXd1 DAR 8 (antibody, human IgG1, kappa)
heavy: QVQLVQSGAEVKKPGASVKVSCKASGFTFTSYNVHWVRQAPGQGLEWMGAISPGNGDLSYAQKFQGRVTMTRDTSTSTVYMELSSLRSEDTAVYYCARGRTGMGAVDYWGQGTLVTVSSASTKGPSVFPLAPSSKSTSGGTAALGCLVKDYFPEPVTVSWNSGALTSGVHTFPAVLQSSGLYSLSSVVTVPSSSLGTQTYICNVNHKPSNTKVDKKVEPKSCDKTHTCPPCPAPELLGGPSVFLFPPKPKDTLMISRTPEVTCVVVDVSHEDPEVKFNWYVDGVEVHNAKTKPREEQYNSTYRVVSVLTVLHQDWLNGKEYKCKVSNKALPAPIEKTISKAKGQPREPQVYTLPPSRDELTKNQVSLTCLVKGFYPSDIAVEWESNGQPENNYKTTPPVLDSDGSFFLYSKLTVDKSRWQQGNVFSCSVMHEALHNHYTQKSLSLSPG
light: B1 light
modifications: MC-GGFG-AM-DXd1 drug-linker on reduced cysteines (maleimide); DAR 8 for the whole antibody
B7: v29456-MT-GGFG-AM-Compound 141 DAR 8 (antibody, human IgG1, kappa)
heavy: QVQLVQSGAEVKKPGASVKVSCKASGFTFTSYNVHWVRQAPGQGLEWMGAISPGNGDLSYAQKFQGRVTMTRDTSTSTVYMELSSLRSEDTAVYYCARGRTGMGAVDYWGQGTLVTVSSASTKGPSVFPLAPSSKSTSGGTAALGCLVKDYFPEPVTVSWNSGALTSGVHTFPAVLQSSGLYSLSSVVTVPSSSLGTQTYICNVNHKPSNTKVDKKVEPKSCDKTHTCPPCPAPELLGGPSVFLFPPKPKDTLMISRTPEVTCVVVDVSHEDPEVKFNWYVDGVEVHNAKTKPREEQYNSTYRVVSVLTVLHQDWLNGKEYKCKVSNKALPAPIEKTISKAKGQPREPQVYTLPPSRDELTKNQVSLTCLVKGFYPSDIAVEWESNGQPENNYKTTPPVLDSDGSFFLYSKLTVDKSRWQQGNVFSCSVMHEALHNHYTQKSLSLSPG
light: B1 light
modifications: MT-GGFG-AM-Compound 141 drug-linker on reduced cysteines (maleimide); DAR 8 for the whole antibody
B8: v29456-MC-GGFG-Compound 141 DAR 8 (antibody, human IgG1, kappa)
heavy: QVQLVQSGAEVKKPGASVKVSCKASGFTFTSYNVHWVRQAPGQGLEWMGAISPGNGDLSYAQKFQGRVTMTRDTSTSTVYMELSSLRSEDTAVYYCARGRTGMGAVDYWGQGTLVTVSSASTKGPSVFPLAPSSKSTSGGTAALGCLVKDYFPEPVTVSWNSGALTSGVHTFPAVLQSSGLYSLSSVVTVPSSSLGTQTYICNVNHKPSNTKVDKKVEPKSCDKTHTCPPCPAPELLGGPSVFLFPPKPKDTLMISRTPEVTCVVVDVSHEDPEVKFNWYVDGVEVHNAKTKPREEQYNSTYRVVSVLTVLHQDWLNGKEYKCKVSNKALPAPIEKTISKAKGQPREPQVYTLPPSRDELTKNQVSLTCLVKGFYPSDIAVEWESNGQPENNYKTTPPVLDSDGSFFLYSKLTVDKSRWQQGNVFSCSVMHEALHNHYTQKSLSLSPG
light: B1 light
modifications: MC-GGFG-Compound 141 drug-linker on reduced cysteines (maleimide); DAR 8 for the whole antibody
B9: v29456-MC-GGFG-AM-Compound 139 DAR 4 (antibody, human IgG1, kappa)
heavy: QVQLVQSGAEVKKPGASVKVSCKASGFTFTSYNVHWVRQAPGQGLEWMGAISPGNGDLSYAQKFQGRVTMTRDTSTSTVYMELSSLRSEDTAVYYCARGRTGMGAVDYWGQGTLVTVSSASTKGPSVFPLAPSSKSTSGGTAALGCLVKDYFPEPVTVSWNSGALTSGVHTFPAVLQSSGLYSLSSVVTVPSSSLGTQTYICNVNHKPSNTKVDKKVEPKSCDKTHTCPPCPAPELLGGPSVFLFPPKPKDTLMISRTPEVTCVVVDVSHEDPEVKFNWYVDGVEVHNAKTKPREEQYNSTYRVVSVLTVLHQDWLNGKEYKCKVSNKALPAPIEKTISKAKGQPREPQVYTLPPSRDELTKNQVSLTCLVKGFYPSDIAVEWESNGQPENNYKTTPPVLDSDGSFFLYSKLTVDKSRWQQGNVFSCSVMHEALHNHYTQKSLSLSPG
light: B1 light
modifications: MC-GGFG-AM-Compound 139 drug-linker on reduced cysteines (maleimide); target DAR 4, printed DAR 3.4, for the whole antibody
B10: v29456-MC-GGFG-Compound 141 DAR 4 (antibody, human IgG1, kappa)
heavy: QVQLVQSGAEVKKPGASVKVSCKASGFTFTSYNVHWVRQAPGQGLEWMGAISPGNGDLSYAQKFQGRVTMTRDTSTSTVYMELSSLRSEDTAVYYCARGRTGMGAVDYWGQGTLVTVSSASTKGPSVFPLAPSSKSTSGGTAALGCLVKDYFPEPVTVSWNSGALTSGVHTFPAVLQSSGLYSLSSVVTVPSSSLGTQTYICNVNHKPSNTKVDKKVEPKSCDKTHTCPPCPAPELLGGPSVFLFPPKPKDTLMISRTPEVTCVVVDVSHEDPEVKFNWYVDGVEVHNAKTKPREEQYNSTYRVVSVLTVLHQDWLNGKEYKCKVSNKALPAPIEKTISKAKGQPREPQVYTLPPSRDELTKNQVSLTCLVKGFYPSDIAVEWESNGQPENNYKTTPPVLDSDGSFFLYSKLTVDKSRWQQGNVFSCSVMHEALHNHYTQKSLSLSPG
light: B1 light
modifications: MC-GGFG-Compound 141 drug-linker on reduced cysteines (maleimide); target DAR 4, printed DAR 3.4, for the whole antibody
B11: v38591 (humanized anti-NaPi2b antibody, H1L2, wild-type Fc) (antibody, human IgG1, kappa)
heavy: not shown
light: B1 light
B12: v38591-MC-GGFG-AM-Compound 139 DAR 4 (antibody, human IgG1, kappa)
heavy: not shown
light: B1 light
modifications: drug-linker MC-GGFG-AM-Compound 139 conjugated by maleimide after TCEP reduction; DAR 4 for the whole antibody; sites not stated
B13: v40502-MC-GGFG-AM-Compound 139 DAR 4 (antibody, human IgG1, kappa, L234A L235A)
heavy: not shown
light: B1 light
modifications: drug-linker MC-GGFG-AM-Compound 139 conjugated by maleimide after TCEP reduction; DAR 4 for the whole antibody (printed 3.3 in Table 45.1); sites not stated
B14: v40502 (LALADS) anti-NaPi2b antibody (antibody, human IgG1, kappa, L234A L235A)
heavy: not shown
light: B1 light
B15: v21995 (palivizumab, anti-RSV antibody) (antibody, human IgG1, kappa, V domains shown)
VH: QVTLRESGPALVKPTQTLTLTCTFSGFSLSTSGMSVGWIRQPPGKALEWLADIWWDDKKDYNPSLKSRLTISKDTSKNQVVLKVTNMDPADTATYYCARSMITNWYFDVWGAGTTVTVSS
VL: DIQMTQSPSTLSASVGDRVTITCKSQLSVGYMHWYQQKPGKAPKLLIYDTSKLASGVPSRFSGSGSGTEFTLTISSLQPDDFATYYCFQGSGYPFTFGGGTKLEIKR
B16: v18993-MCvc-PABC-MMAE (lifastuzumab vedotin) (antibody, human IgG1, kappa)
heavy 1: GEVQLVESGGGLVQPGGSLRLSCAASGFSFSDFAMSWVRQAPGKGLEWVATIGRVAFHTYYPDSMKGRFTISRDNSKNTLYLQMNSLRAEDTAVYYCARHRGFDVGHFDFWGQGTLVTVSSASTKGPSVFPLAPSSKSTSGGTAALGCLVKDYFPEPVTVSWNSGALTSGVHTFPAVLQSSGLYSLSSVVTVPSSSLGTQTYICNVNHKPSNTKVDKKVEPKSCDKTHTCPPCPAPELLGGPSVFLFPPKPKDTLMISRTPEVTCVVVDVSHEDPEVKFNWYVDGVEVHNAKTKPREEQYNSTYRVVSVLTVLHQDWLNGKEYKCKVSNKALPAPIEKTISKAKGQPREPQVYVYPPSRDELTKNQVSLTCLVKGFYPSDIAVEWESNGQPENNYKTTPPVLDSDGSFALVSKLTVDKSRWQQGNVFSCSVMHEALHNHYTQKSLSLSPG
heavy 2: not shown
light: GDIQMTQSPSSLSASVGDRVTITCRSSETLVHSSGNTYLEWYQQKPGKAPKLLIYRVSNRFSGVPSRFSGSGSGTDFTLTISSLQPEDFATYYCFQGSFNPLTFGQGTKVEIKRTVAAPSVFIFPPSDEQLKSGTASVVCLLNNFYPREAKVQWKVDNALQSGNSQESVTEQDSKDSTYSLSSTLTLSKADYEKHKVYACEVTHQGLSSPVTKSFNRGEC
modifications: drug-linker MCvc-PABC-MMAE; DAR 4.1 for the whole antibody; sites not stated

The first test concerns the target T1, human sodium-dependent phosphate transporter 2B (NaPi2b) (human, UniProt O95436 1-690).
T1 sequence: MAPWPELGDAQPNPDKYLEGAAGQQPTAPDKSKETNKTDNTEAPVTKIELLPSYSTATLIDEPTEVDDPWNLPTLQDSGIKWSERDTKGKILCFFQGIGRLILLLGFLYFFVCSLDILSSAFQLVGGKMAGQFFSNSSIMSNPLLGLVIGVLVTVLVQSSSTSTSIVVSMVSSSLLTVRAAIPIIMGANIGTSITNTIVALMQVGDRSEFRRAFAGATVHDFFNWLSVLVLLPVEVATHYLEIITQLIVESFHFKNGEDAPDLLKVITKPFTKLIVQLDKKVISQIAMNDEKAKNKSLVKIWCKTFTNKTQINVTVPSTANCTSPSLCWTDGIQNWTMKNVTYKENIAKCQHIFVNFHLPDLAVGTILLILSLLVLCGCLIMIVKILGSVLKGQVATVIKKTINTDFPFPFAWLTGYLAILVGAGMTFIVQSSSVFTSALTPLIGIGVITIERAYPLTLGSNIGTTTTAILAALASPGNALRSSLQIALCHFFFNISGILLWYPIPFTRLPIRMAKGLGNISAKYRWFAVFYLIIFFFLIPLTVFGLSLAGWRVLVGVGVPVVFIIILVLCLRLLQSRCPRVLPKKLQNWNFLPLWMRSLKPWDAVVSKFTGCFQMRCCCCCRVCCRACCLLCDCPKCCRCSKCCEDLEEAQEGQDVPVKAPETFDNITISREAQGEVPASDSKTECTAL
Put plainly: cell-based or functional assay.
B1: the “EC50 of cytotoxicity, 2D monolayer, HCC-78 cells, 4 days, CellTiter-Glo” value was 0.65 nM and the “EC50 of cytotoxicity, 2D monolayer, IGROV-1 cells, 4 days, CellTiter-Glo” value amounted to 1.71 nM.
As for B2, the “EC50 of cytotoxicity, 2D monolayer, HCC-78 cells, 4 days, CellTiter-Glo” value was determined as 1.98 nM.
On the same count and under the same terms, the result for B3 reads 0.6 nM.
Take B4: the “EC50 of cytotoxicity, 2D monolayer, HCC-78 cells, 4 days, CellTiter-Glo” value worked out at 0.42 nM and the “EC50 of cytotoxicity, 2D monolayer, IGROV-1 cells, 4 days, CellTiter-Glo” value is 1.11 nM.
The corresponding values for B5 are 0.43 nM and 4.48 nM.
Turning to B6, the “EC50 of cytotoxicity, 2D monolayer, HCC-78 cells, 4 days, CellTiter-Glo (row printed as v29456-MT-GGFG-AM-DXd1)” value came out at 0.55 nM and the “EC50 of cytotoxicity, 2D monolayer, IGROV-1 cells, 4 days, CellTiter-Glo (row printed as v29456-MT-GGFG-AM-DXd1)” value is 0.45 nM.
Regarding B7, the “EC50 of cytotoxicity, 2D monolayer, HCC-78 cells, 4 days, CellTiter-Glo” value amounted to 0.26 nM and the “EC50 of cytotoxicity, 2D monolayer, IGROV-1 cells, 4 days, CellTiter-Glo” value was 1.56 nM.

Another test deals with T1, human sodium-dependent phosphate …. Kind of test: cell-based or functional assay. The source holds these as a separate data set.
For B8, the “EC50 of cytotoxicity, 2D monolayer, IGROV-1 cells” value stood at 3.01 nM and the “EC50 of cytotoxicity, 2D monolayer, TOV-21G cells” value turned out to be 0.93 nM.
B9: the “EC50 of cytotoxicity, 2D monolayer, IGROV-1 cells” value worked out at 5.46 nM.
As for B10, the “EC50 of cytotoxicity, 2D monolayer, IGROV-1 cells” value is 16.4 nM.

For the next test the target is unchanged. Kind of test: cell-based or functional assay. The source holds these as a separate data set.
Turning to B1, the “EC50 of cytotoxicity, HCC-78 3D spheroids, 6 days, CellTiter-Glo 3D” value was 0.82 nM and the “EC50 of cytotoxicity, IGROV-1 3D spheroids, 6 days, CellTiter-Glo 3D” value was found to be 0.37 nM.
The corresponding values for B3 are 0.19 nM and 0.25 nM.
Regarding B6, the “EC50 of cytotoxicity, HCC-78 3D spheroids, 6 days, CellTiter-Glo 3D” value stood at 0.6 nM and the “EC50 of cytotoxicity, IGROV-1 3D spheroids, 6 days, CellTiter-Glo 3D” value is 0.27 nM.
For B7, in that order: 0.33 nM and 0.21 nM.

The target is the same in the next test. Put plainly: cell-based or functional assay. The source holds these as a separate data set.
For B8, the “EC50 of cytotoxicity, IGROV-1 3D spheroids” value amounted to 0.44 nM and the “EC50 of cytotoxicity, TOV-21G:HDFa (1:1) 3D spheroids” value amounted to 0.9 nM.
With B9, the “EC50 of cytotoxicity, IGROV-1 3D spheroids” value is 0.88 nM and the “EC50 of cytotoxicity, TOV-21G:HDFa (1:1) 3D spheroids” value was found to be 0.76 nM.
For B10, in that order: 1.31 nM and 0.99 nM.

The target in the next test is T2, human sodium-dependent phosphate transporter 2B (NaPi2b) (human, UniProt O95436 1-690).
T2 sequence: T1 sequence
Put plainly: cell-based or functional assay.
Consider B11, for which the “Internalized Fluorescence Fold-Over Untreated, H441, 4 hours, 2.5 nM” value amounted to 1.2 fold; the “Internalized Fluorescence Fold-Over Untreated, H441, 24 hours, 2.5 nM” value is 1.9 fold; the “Internalized Fluorescence Fold-Over Untreated, HCC-78, 4 hours, 2.5 nM” value was 5.7 fold; the “Internalized Fluorescence Fold-Over Untreated, HCC-78, 24 hours, 2.5 nM” value stood at 35 fold. The “Internalized Fluorescence Fold-Over Untreated, IGROV-1, 4 hours, 2.5 nM” value came out at 7.2 fold and the “Internalized Fluorescence Fold-Over Untreated, IGROV-1, 24 hours, 2.5 nM” value amounted to 26 fold.
For B12, the “Internalized Fluorescence Fold-Over Untreated, H441, 4 hours, 2.5 nM” value worked out at 1.2 fold; the “Internalized Fluorescence Fold-Over Untreated, H441, 24 hours, 2.5 nM” value came to 2 fold; the “Internalized Fluorescence Fold-Over Untreated, HCC-78, 4 hours, 2.5 nM” value worked out at 5.6 fold; the “Internalized Fluorescence Fold-Over Untreated, HCC-78, 24 hours, 2.5 nM” value stood at 35.9 fold. Moreover, the “Internalized Fluorescence Fold-Over Untreated, IGROV-1, 4 hours, 2.5 nM” value came out at 7.1 fold and the “Internalized Fluorescence Fold-Over Untreated, IGROV-1, 24 hours, 2.5 nM” value is 26.6 fold.
For B13, the “Internalized Fluorescence Fold-Over Untreated, H441, 4 hours, 2.5 nM” value amounted to 1.2 fold; the “Internalized Fluorescence Fold-Over Untreated, H441, 24 hours, 2.5 nM” value is 1.9 fold; the “Internalized Fluorescence Fold-Over Untreated, HCC-78, 4 hours, 2.5 nM” value was 5.3 fold; the “Internalized Fluorescence Fold-Over Untreated, HCC-78, 24 hours, 2.5 nM” value amounted to 36.5 fold. In addition, the “Internalized Fluorescence Fold-Over Untreated, IGROV-1, 4 hours, 2.5 nM” value is 6.8 fold and the “Internalized Fluorescence Fold-Over Untreated, IGROV-1, 24 hours, 2.5 nM” value worked out at 25.4 fold.
Take B14: the “Internalized Fluorescence Fold-Over Untreated, H441, 4 hours, 2.5 nM” value came to 1.2 fold; the “Internalized Fluorescence Fold-Over Untreated, H441, 24 hours, 2.5 nM” value worked out at 1.9 fold; the “Internalized Fluorescence Fold-Over Untreated, HCC-78, 4 hours, 2.5 nM” value was 5.5 fold; the “Internalized Fluorescence Fold-Over Untreated, HCC-78, 24 hours, 2.5 nM” value is 35.5 fold. The “Internalized Fluorescence Fold-Over Untreated, IGROV-1, 4 hours, 2.5 nM” value was 7 fold and the “Internalized Fluorescence Fold-Over Untreated, IGROV-1, 24 hours, 2.5 nM” value amounted to 25.3 fold.
As to B15, the “Internalized Fluorescence Fold-Over Untreated, H441, 4 hours, 2.5 nM” value stood at 1 fold; the “Internalized Fluorescence Fold-Over Untreated, H441, 24 hours, 2.5 nM” value amounted to 1.1 fold; the “Internalized Fluorescence Fold-Over Untreated, HCC-78, 4 hours, 2.5 nM” value stood at 1 fold; the “Internalized Fluorescence Fold-Over Untreated, HCC-78, 24 hours, 2.5 nM” value is 1.1 fold. Moreover, the “Internalized Fluorescence Fold-Over Untreated, IGROV-1, 4 hours, 2.5 nM” value is 0.9 fold and the “Internalized Fluorescence Fold-Over Untreated, IGROV-1, 24 hours, 2.5 nM” value worked out at 1 fold.

A further test deals with T2, human sodium-dependent phosphate …. Put plainly: cell-based or functional assay. This is another data set of the same source.
B16: the “EC50 (nM), in vitro cytotoxicity, H441 Spheroids” value was 11.4 nM and the “EC50 (nM), in vitro cytotoxicity, H1781 Spheroids” value is 7.94 nM.
The corresponding values for B11 are more than 200 nM and more than 200 nM.
The corresponding values for B12 are 9.85 nM and 0.95 nM.
The corresponding values for B13 are 7.57 nM and 1.15 nM.
Turning to B14, the “EC50 (nM), in vitro cytotoxicity, H441 Spheroids” value was more than 200 nM and the “EC50 (nM), in vitro cytotoxicity, H1781 Spheroids” value was more than 200 nM.

Source of the values: US20250235548A1 (Zymeworks, published 2025).
